Data from patent publication US20110263679.

Tested on: T1, purified recombinant His-tagged C12ORF48 protein
T1 sequence: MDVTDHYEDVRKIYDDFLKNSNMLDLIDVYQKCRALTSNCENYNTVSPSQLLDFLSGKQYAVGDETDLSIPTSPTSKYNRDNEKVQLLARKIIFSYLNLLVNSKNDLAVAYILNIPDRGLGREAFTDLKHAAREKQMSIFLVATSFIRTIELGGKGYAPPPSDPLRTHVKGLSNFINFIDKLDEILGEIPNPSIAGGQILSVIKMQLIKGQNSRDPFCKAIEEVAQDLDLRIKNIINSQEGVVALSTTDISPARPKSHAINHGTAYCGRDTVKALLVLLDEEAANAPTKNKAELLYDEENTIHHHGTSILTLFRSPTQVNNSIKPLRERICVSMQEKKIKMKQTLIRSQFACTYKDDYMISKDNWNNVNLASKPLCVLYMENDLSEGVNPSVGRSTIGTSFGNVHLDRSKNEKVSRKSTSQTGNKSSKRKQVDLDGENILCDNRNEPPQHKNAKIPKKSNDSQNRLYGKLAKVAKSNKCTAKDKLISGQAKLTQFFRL

recombinant human PARP1 (Alexis)
PARP1 automodification, incorporation of [32P] NAD+, SDS-PAGE autoradiography: PARP1 automodification was strongly enhanced in the presence of C12ORF48 protein compared with in the absence of C12ORF48 protein
